T1: Rhizomucor miehei lipase (RmL) mature protein (Rhizomucor miehei, UniProt P19515 95-363)
T1 construct: Expressed in Aspergillus oryzae ToC1512 from the gene with its prepropeptide; The mature part is the same in all RMLPP variants; also called RmL WT; mature protein of the lipase
T1 sequence: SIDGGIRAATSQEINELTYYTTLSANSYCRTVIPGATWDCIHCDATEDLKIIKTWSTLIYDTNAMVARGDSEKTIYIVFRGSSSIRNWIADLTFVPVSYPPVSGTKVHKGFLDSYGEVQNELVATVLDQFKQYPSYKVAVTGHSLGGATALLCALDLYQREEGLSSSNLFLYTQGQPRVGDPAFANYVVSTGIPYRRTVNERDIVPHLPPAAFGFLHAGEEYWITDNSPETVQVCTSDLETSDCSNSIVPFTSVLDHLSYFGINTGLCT


Legend:
[1] = molecular target: T1, Rhizomucor miehei lipase (RmL) mature …; assay: native PAGE, column HMW band (taken by the filing as lipase associated with propeptide)
Description: (§1) The native PAGE was casted by first pouring the Resolving gel (4.0 mL 30% Acrylamide (Acrylamide-Bis-acrylamide solution); 2.5 mL 1.5M Tris (pH8.8); 0.1 mL 10% Ammonium per sulphate (APS); 0.004 mL TEMED; 3.3 mL water), followed by overlaying with butanol-water and allowing to polymerize for 30-45 minutes. The butanol-water was washed off and then the stacking gel (1.7 mL 30% Acrylamide (Acrylamide-Bis-acrylamide solution); 1.25 mL 1.5M Tris (pH6.8); 0.1 mL 10% Ammonium per sulphate (APS); 0.01 mL TEMED; 6.8 mL water), was poured over the polymerized resolving gel, immediately followed by insertion of the comb. This was allowed to polymerize for approx. 15 minutes. The protein sample (culture supernatant) was mixed with loading dye (5× composition (2 mL): 0.62 mL 1M Tris pH6.8; 0.1 mL 1% Bromophenol blue; 1.0 mL Glycerol; 0.28 mL Water) and loaded in to the wells of the native PAGE. The gel was run in SDS-free electrophoresis buffer (3.0 g Tris base; 14.4 g Glycine; water up to 1 L) at constant current of 25 mA.

[2] = molecular target: T1, Rhizomucor miehei lipase (RmL) mature …; assay: native PAGE of culture supernatant; HMW band, taken by the filing as lipase associated with propeptide
Description: as §1

| binding result [1] | binding result [2] | Binder |
| --- | --- | --- |
| binds |  | propeptide of RmL (wild type) (also called RmL WT propeptide) peptide: VPIKRQSNSTVDSLPPLIPSRTSAPSSSPSTTDPEAPAMSRNGPLPSDVETKYGMALNATSYPDSVVQAM |
|  | no binding | propeptide of RMLPP0006 (N-63Q N-13Q) (peptide) peptide: VPIKRQSQSTVDSLPPLIPSRTSAPSSSPSTTDPEAPAMSRNGPLPSDVETKYGMALQATSYPDSVVQAM |

From patent publication US20170137795A1 (NOVOZYMES A S, published 2017)
